# Results reported in patent US10801027B2, “Inhibitors of SRSF1 to treat neurodegenerative disorders” (University of Sheffield, priority 2016, dated 2020).
# B1: SRSF1-m4: quadruple SRSF1 point mutant aa11-196, dominant negative, does not interact with TAP/NXF1 (protein)
# chain: AGNNDCRIYVGNLPPDIRTKDIEDVFYKYGAIRDIDLKNRRGGPPFAFVEFEDPRDAEDAVYGRDGYDYDGYRLRVEFPASGAGTGRGGGGGGGGGAPRGRYGPPSAASENRVVVSGLPPSGSWQDLKDHMREAGDVCYADVYRDGTGVVEFVRKEDMTYAVRKLDNTKFRSHEGETAYIRVKVDG
# modifications: left off: small tags and cut ends
# Assays:
# N2A cells = assay: MTT cell proliferation assay; format: cell-based, mouse; conditions: G4C2×38 or C4G2×39 plasmids, 72 h
# Method: Neuro-2a (N2A) cells were split into each well of a 24 well plate (30,000 cells/well). Each plate contained 4 wells with only media to serve as a blank and 4 wells/treatment. Cells were transfected for 72 hours with either 500 ng pcDNA 3.1, pcDNA 3.1/RAN-G4C2×15 RAN-G4C2×38-sense, RAN-C4G2×15 or RAN-C4G2×39-antisense; or 250 ng pcDNA6.2-GW/EmGFP-Control miR RNAi, pcDNA6.2-GW/EmGFP-mouse SRSF1 miR1+2 RNAi, p3×FLAG/SRSF1 (11-196), or p3×FLAG/SRSF1 (11-196)-m4 and 250 ng pcDNA 3.1, pcDNA 3.1/RAN-G4C2×38-sense or RAN-C4G2×39-antisense.
# […] Thiazolyl Blue Tetrazolum Bromide reagent (MTT) was added to each well and incubated in the dark at […] for 1 hour. Cells were subsequently lysed with equal volume MTT lysis buffer (20% SDS, 50% Dimethylformamide (DMF)) and incubated, shaking, at room temperature for 1 hour. Absorbance at 595 was then assessed with a PHERAstar FS (BMG Labtech). Experiments were performed in triplicate for each treatment. Absorbance data was analysed using PHERAstar MARS (BMG Labtech) and GraphPad Prism (version 6).
# [1] = test system: G4C2-sense or C4G2-antisense repeat transcripts; assay: RNA immunoprecipitation (RIP) assays in N2A cells; format: binding, mouse; conditions: 15 vs 38/39 repeats
# Method: Cells were split into 1×T-175 flasks/treatment (5×10^6 cells/plate) and transfected with 30 μg p3×FLAG, p3×FLAG/SRSF1 (11-196) or p3×FLAG/SRSF1 (11-196)-m4 and 10 μg pcDNA 3.1/RAN-G4C2×15-sense, RAN-G4C2×38-sense, RAN-G4C2×15-antisense or RAN-C4G2×39-antisense using 3 μg PEI/1 μg […] and one tenth volume OptiMEM.
# Protein-RNA complexes were extracted from Neuro-2a cells 48 hours after transfection. Protein-RNA complexes were cross-linked using 1% formaldehyde for 10 minutes, shaking at room temperature. Residual formaldehyde was quenched with 250 mM Glycine at room temperature for 5 minutes, shaking. Cross-linked cells were subsequently washed in ice cold DEPC treated PBS and scraped into ice cold RNase free lysis buffer (DEPC treated water containing 50 mM Hepes pH7.5, 150 mM NaCl, 10% glycerol, 0.5% triton X-100, 1 mM EDTA, 1 mM DTT, 1 μl RNase inhibitor, protease inhibitor cocktail). Cells were passed through a 21G gauge needle 10 times and left to lyse on ice for 10 minutes, followed by centrifugation at maximum speed at 4° C. for five minutes and quantification using Bradford Reagent. 2.5 mg of total protein at a 1 mg/ml concentration was incubated with 40 μl anti-FLAG® M2 affinity resin slurry (which had been blocked overnight with 1% BSA and 5 μl/ml ssDNA) overnight at 4° C. on a rotating wheel. One 15th of the total protein extract was retained for an input sample. […]
# C4G2×5 repeat RNA = assay: Protein:RNA UV crosslinking assay, antisense probe; format: binding; conditions: purified recombinant hexa-histidine-tagged protein
# Method: Recombinant proteins expressed in 1.51 of E. coli BL21 (DE3)-RP (Novagen) cell cultures were purified by IMAC chromatography on TALON/Cobalt beads (Clontech) in 1M NaCl containing buffers to prevent the potential co-purification of E. coli RNA (Lysis buffer: 50 mM TRIS-HCl pH8.0, 1M NaCl, 0.5% Triton X-100; Wash buffer: 50 mM TRIS-HCl pH8.0, 1M NaCl, 0.5% Triton X-100, 5 mM imidazole). […] Binding reactions were resolved on SDS-PAGE prior to analysis by Coomassie staining and Phosphoimaging.
molecule,measurement,setting,value
B1,neurotoxicity mediated by expression of the C9ORF72 repeat transcripts,N2A cells,suppress the neurotoxicity
same,immunoprecipitated repeat transcripts,[1],length-dependent repeat-RNA sequestration
same,direct interaction with antisense C4G2×5 repeat RNA,C4G2×5 repeat RNA,retains the ability to directly interact
